Laboratory results published in US20160137714A1 (Thrasos Innovation, Inc., priority 2014, published 2016).
Positions of bridges follow the written chain, without caps; N, C: chain ends. Non-standard residues stand in square brackets, D forms with d. Residues, ends and D or L forms follow the SMILES beside them. No end group written: not given here. *: point of attachment. Hydrocinnamoyl = O=C(CCc1ccccc1)*; NMeR = CN[C@@H](CCCNC(=N)N)C(=O)O; Pyrazinecarbonyl = O=C(c1cnccn1)*; dNMeR = CN[C@H](CCCNC(=N)N)C(=O)O

How the values were obtained:
FIGURE 31 (1/2) = assay: FIGURE 31 (1/2)
Description: Table printed on a drawing sheet, FIGURE 31 (1/2)
Peptide to internal standard peak area ratios were used calculate percentage remaining peptide at 60 minutes and 120 minutes. Peptides are identified by GPR number (GPR#) and SEQ ID NO.
First reader's note: First of two sheets of FIGURE 31; the table continues on sheet 2/2, and the meaning of the asterisks is not printed on this sheet.

Ex-vivo plasma stability = assay type: in vitro ADME, mouse or rat; details: for remaining at 1 h / remaining at 2 h: fresh plasma 37° C., 1 μM; for remaining at 1 h: 60 min, read-out: Percent remaining 60 min; for remaining at 2 h: 120 min, read-out: Percent remaining 120 min
Description: Test article is added to fresh mouse or rat plasma at a final in-vial concentration of 1 μM. The peptide is incubated in a water bath at 37° C. over a time course that included the following points (in minutes): 0, 15, 30, 60, 120, 240, and 1440. After the incubation time is completed, a 50 μL aliquot of plasma is removed and proteins are precipitated using a solution containing internal standard (THR-123 at 150 ng/mL) in methanol with 0.5% acetic acid (v/v). The samples are centrifuged at 13,000 RPM for 5 minutes, and a 100 μL aliquot of supernatant is removed and transferred to a 96-well plate containing 200 μL of reconstitution solution (Water/MeOH/Acetic Acid/TFA, 60/40/0.2/0.05, v/v/v/v). A calibration curve and quality control (QC) samples are prepared in parallel in the same manner as the incubation samples. The calibration range for this assay is from 0.02 to 2.0 μM in rat or mouse plasma. The extracted calibrants, QC, and incubation samples are injected onto an AB SCIEX API 2000 LC-MS/MS system. Chromatographic separation is performed using a reversed-phase C18 HPLC column (Ace-3 C18, 30×2.1 mm, 3 μm). The solvent system consists of Milli-Q water, acetonitrile and formic acid. Analyte and internal standard are detected using the multiple reaction monitoring (MRM) scan mode. Calibration curves are generated by using a weighted (1/concentration) quadratic regression analysis of the peak area ratios (analyte/internal standard) versus the nominal concentration of the calibration standards. The concentration of the analyte in the incubation samples is determined by back-calculating the peak area ratios obtained using the quadratic regression.

remaining at 1 h (Ex-vivo plasma stability) [%]	remaining at 2 h (Ex-vivo plasma stability) [%]	stability toward plasma proteolytic cleavage (Ex-vivo plasma stability; versus THR-123, rat plasma (FIGS. 3 and 4))	Molecule	% Remaining at 60 and 120 minutes | 60 (FIGURE 31 (1/2)) [%]	% Remaining at 60 and 120 minutes | 120 (FIGURE 31 (1/2)) [%]
–	–	–	[N-terminal: Pirazinyl-CO-]Cys-Tyr-Phe-Asp-Asp-Ser-Ser-Asn-Val-Leu-Cys-Lys-Lys-Tyr-Arg-Ser (Pyrazinecarbonyl-CYFDDSSNVLCKKYRS-OH; disulfide 1-11 (inferred)) [SEQ ID NO:33]	44.3	23.6
–	–	–	CYFDDSSNVKCKK[dA]RS (cysteine pairing not given here) [SEQ ID NO:28]	75.3	90.2
–	–	–	Cys-Tyr-Phe-Asp-Asp-Asn-Ser-Asn-Val-Leu-Cys-Arg-Lys-Tyr-(Me)(D)Arg-Ser (CYFDDNSNVLCRKY[dNMeR]S-OH; disulfide 1-11 (inferred)) [SEQ ID NO:38]	90.4	84.2
–	–	–	Cys-Tyr-Phe-Nal-Asp-Ser-Ser-Asn-Val-Leu-Cys-Lys-Lys-Tyr-Arg-Ser (CYF[Nal]DSSNVLCKKYRS-OH; disulfide 1-11 (inferred)) [SEQ ID NO:47]	9.0	8.2
–	–	–	Cys-Tyr-Phe-Asp-Asp-Ser-Ser-Asn-Thr-Leu-Cys-Lys-Lys-Tyr-(Me)(D)Arg-Ser (CYFDDSSNTLCKKY[dNMeR]S-OH; disulfide 1-11 (inferred)) [SEQ ID NO:40]	106.0	99.2
–	–	–	[N-terminal: Pirazinyl-CO-]Cys-Tyr-Phe-Asp-Asp-Ser-Ser-Asn-Val-Leu-Cys-Lys-Lys-(D)Tyr-Arg-Ser (Pyrazinecarbonyl-CYFDDSSNVLCKK[dY]RS-OH; disulfide 1-11 (inferred)) [SEQ ID NO:34]	66.2	78.7
–	–	–	Cys-Tyr-Phe-Asp-Asp-Ser-Ser-Asn-Ala-Leu-Cys-Lys-Lys-Tyr-(Me)(D)Arg-Ser (CYFDDSSNALCKKY[dNMeR]S-OH; disulfide 1-11 (inferred)) [SEQ ID NO:42]	100.0	94.0
–	–	–	Cys-Tyr-Phe-Nal-Asp-Ser-Ser-Asn-Val-Leu-Cys-Lys-Lys-(D)Tyr-Arg-Ser (CYF[Nal]DSSNVLCKK[dY]RS-OH; disulfide 1-11 (inferred)) [SEQ ID NO:48]	93.33	97.49
–	–	–	CC(C)C[C@@H]1NC(=O)[C@H](C(C)C)NC(=O)[C@H](CC(N)=O)NC(=O)[C@H](CO)NC(=O)[C@H](CO)NC(=O)[C@H](CC(=O)O)NC(=O)[C@H](CC(=O)O)NC(=O)[C@H](Cc2ccccc2)NC(=O)[C@H](Cc2ccc(O)cc2)NC(=O)[C@@H](NC(=O)CCc2ccccc2)CSSC[C@@H](C(=O)N[C@@H](CCCCN)C(=O)N[C@@H](CCCCN)C(=O)N[C@@H](Cc2ccc(O)cc2)C(=O)N[C@@H](CCCNC(=N)N)C(=O)N[C@@H](CO)C(=O)O)NC1=O [SEQ ID NO:31, [N-terminal: Phenyl-CH2-CH2-CO-]Cys-Tyr-Phe-Asp-Asp-Ser-Ser-Asn-Val-Leu-Cys-Lys-Lys-Tyr-Arg-Ser] (Hydrocinnamoyl-CYFDDSSNVLCKKYRS-OH; disulfide 1-11)	26.6	11.8
–	–	–	CC(C)C[C@@H]1NC(=O)[C@H](C(C)C)NC(=O)[C@H](CC(N)=O)NC(=O)[C@H](CO)NC(=O)[C@H](CO)NC(=O)[C@H](CC(=O)O)NC(=O)[C@H](CC(=O)O)NC(=O)[C@H](Cc2ccccc2)NC(=O)[C@H](Cc2ccc(O)cc2)NC(=O)[C@@H](NC(=O)CCc2ccccc2)CSSC[C@@H](C(=O)N[C@@H](CCCCN)C(=O)N[C@@H](CCCCN)C(=O)N[C@H](Cc2ccc(O)cc2)C(=O)N[C@@H](CCCNC(=N)N)C(=O)N[C@@H](CO)C(=O)O)NC1=O [SEQ ID NO:32, [N-terminal: Phenyl-CH2-CH2-CO-]Cys-Tyr-Phe-Asp-Asp-Ser-Ser-Asn-Val-Leu-Cys-Lys-Lys-(D)Tyr-Arg-Ser] (Hydrocinnamoyl-CYFDDSSNVLCKK[dY]RS-OH; disulfide 1-11)	82.0	91.0
3.5	1.6	–	CC(C)C[C@@H]1NC(=O)[C@H](C(C)C)NC(=O)[C@H](CC(N)=O)NC(=O)[C@H](CO)NC(=O)[C@H](CO)NC(=O)[C@H](CC(=O)O)NC(=O)[C@H](CC(=O)O)NC(=O)[C@H](Cc2ccccc2)NC(=O)[C@H](Cc2ccc(O)cc2)NC(=O)[C@@H](N)CSSC[C@@H](C(=O)N[C@@H](CCCCN)C(=O)N[C@@H](CCCNC(=N)N)C(=O)N[C@@H](Cc2ccc(O)cc2)C(=O)N[C@@H](CCCNC(=N)N)C(=O)N[C@@H](CO)C(=O)O)NC1=O [GPR-293, Cys-Tyr-Phe-Asp-Asp-Ser-Ser-Asn-Val-Leu-Cys-Lys-Arg-Tyr-Arg-Ser] (H-CYFDDSSNVLCKRYRS-OH; disulfide 1-11)	–	–
91	82.4	enhanced	CC(C)C[C@@H]1NC(=O)[C@H](C(C)C)NC(=O)[C@H](CC(N)=O)NC(=O)[C@H](CO)NC(=O)[C@H](CO)NC(=O)[C@H](CC(=O)O)NC(=O)[C@H](CC(=O)O)NC(=O)[C@H](Cc2ccccc2)NC(=O)[C@H](Cc2ccc(O)cc2)NC(=O)[C@@H](N)CSSC[C@@H](C(=O)N[C@@H](CCCCN)C(=O)N[C@@H](CCCCN)C(=O)N[C@@H](Cc2ccc(O)cc2)C(=O)N(C)[C@@H](CCCNC(=N)N)C(=O)N[C@@H](CO)C(=O)O)NC1=O [GPR-396, Cys-Tyr-Phe-Asp-Asp-Ser-Ser-Asn-Val-Leu-Cys-Lys-Lys-Tyr-(Na-Me)Arg-Ser] (H-CYFDDSSNVLCKKY[NMeR]S-OH; disulfide 1-11)	–	–
–	–	–	Cys-Tyr-Tyr-Phe-Ser-Ser-Ser-Phe-Val-Leu-Cys-Lys-Arg-Tyr-(Me)(D)Arg-Ser (CYYFSSSFVLCKRY[dNMeR]S-OH; disulfide 1-11 (inferred)) [SEQ ID NO:44]	74.3	57.5
